Fewer inactive variants are shown than the library holds. Some results are limits rather than exact numbers.

The chains are these.
B1: TPR 5TU (parent)
chain: GGAUCUUCUCGAUCUAACAAAAAAGACAAAUCUGCCACAAAGCUUGAGAGCAUCUUCGGAUGCAGAGGCGGCAGCCUUCGGUGGCGCGAUAGCGCCAACGUUCUCAACUAUGACACGCAAAACGCGUGCUCCGUUGAAUGGAGUUUAUCAUG

The series covers variants of B1. As to the kind of experiment: polymerase ribozyme fitness, log enrichment relative to wild type (log ratio); higher = more active; in vitro selection for triplet polymerase activity. Summed up:
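Fitness measures genotype enrichment against wild-type enrichment on a logarithmic scale, with inverse-variance-weighted averaging of replicates. The logarithm is base 2, and genotypes were kept only with ≥10 input reads and ≥1 read per output in Illumina sequencing. The sequenced libraries came from one triplicate in vitro selection round, including frozen incubation at −7 °C, of PCR-built, transcribed mutant libraries of each subunit of a heterodimeric triplet polymerase ribozyme.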
Regarding A52G U82C G92U C93U G126A, the “polymerase ribozyme fitness (log ratio)” value is -1.76.

As to A52U G86U C105U, the “polymerase ribozyme fitness (log ratio)” value is -1.83.

With A52G U78C A89U, the “polymerase ribozyme fitness (log ratio)” value was -1.24. The figure for U53G A113U is -3.16; for U53A C63U C99G it is -3.81; for U53A G92U A107U G136U it is no more than -4.2.

As for U53G C96U C114U A120C A147U, the “polymerase ribozyme fitness (log ratio)” value is -3.11. As to U53A G80A U109A C123U A142G, the “polymerase ribozyme fitness (log ratio)” value is -3.11. Regarding U53A A60U C63U C75U U77G C93G A122G C149G U151A, the “polymerase ribozyme fitness (log ratio)” value was no more than -4.2. Regarding A52G G141A, the “polymerase ribozyme fitness (log ratio)” value is -1.24. A52G G88U: the “polymerase ribozyme fitness (log ratio)” value was no more than -4.2. Regarding A52U C118U U146G, the “polymerase ribozyme fitness (log ratio)” value is -3.62. For U53A A89C G94A G141C, the “polymerase ribozyme fitness (log ratio)” value was -3.63. As for U53A G80U C96A G143A U146C C149G, the “polymerase ribozyme fitness (log ratio)” value is no more than -4.2. Consider A52U U53G U56A G65C C75U C85U U104G U127C U139A, for which the “polymerase ribozyme fitness (log ratio)” value was no more than -4.2.

Take U53A U130G A142C: the “polymerase ribozyme fitness (log ratio)” value was -0.549. Turning to A52U C116A, the “polymerase ribozyme fitness (log ratio)” value amounted to 0.243.

For U53G G62C C85U U109C, the “polymerase ribozyme fitness (log ratio)” value is no more than -4.2. As to A52U G74A C87A A119U U148G, the “polymerase ribozyme fitness (log ratio)” value is no more than -4.2. As to A52G U56C C93A, the “polymerase ribozyme fitness (log ratio)” value is -2.44.

For the variant U53G C87U A120C, the “polymerase ribozyme fitness (log ratio)” value was -2.07.

As to U53A C54U G74U C75U G86U G141A, the “polymerase ribozyme fitness (log ratio)” value is no more than -4.2. On to U53A C93A U101C C125U C132U G140U A147C, for which the “polymerase ribozyme fitness (log ratio)” value is no more than -4.2. Regarding U53C C93G C99G C118A G126A U146G, the “polymerase ribozyme fitness (log ratio)” value was no more than -4.2.

Consider U53A C99U C116U, for which the “polymerase ribozyme fitness (log ratio)” value is -1.7.

With U53A C54A G58A C85U, the “polymerase ribozyme fitness (log ratio)” value is -0.519. Turning to U53G U135C, the “polymerase ribozyme fitness (log ratio)” value is -3.23. Consider A52G C93U C116U, for which the “polymerase ribozyme fitness (log ratio)” value is -1.48. For the variant A52G G94C, the “polymerase ribozyme fitness (log ratio)” value was -1.32.

U53A C96U C99U G143C: the “polymerase ribozyme fitness (log ratio)” value was no more than -4.2. As for U53A C54U C57A G86A, the “polymerase ribozyme fitness (log ratio)” value is -2.08.

Regarding A52G C108U, the “polymerase ribozyme fitness (log ratio)” value was -2.1. Under A52U A122G stands -3.43. The figure for A52U C54U A97U is -2.56.

For A52G G62A C85U, the “polymerase ribozyme fitness (log ratio)” value was -1.4. Turning to U53A G80C A106C C125U, the “polymerase ribozyme fitness (log ratio)” value was no more than -4.2. On to A52G C105A C123A G133U U144G, for which the “polymerase ribozyme fitness (log ratio)” value was no more than -4.2. As for U53A G68U C76G U130A C132U G136A A142U, the “polymerase ribozyme fitness (log ratio)” value was no more than -4.2.

Turning to U53A C93A, the “polymerase ribozyme fitness (log ratio)” value is -3.27. The figure for U53C G86A C95U is -1.78; for A52U A73G U102C it is no more than -4.2; for U53A A60G C96U A106U U139G it is -2.41. Consider U53G C93A C103G, for which the “polymerase ribozyme fitness (log ratio)” value was no more than -4.2.

With U53A G70C C114A, the “polymerase ribozyme fitness (log ratio)” value was no more than -4.2. Regarding A52G G84A C118U C123G, the “polymerase ribozyme fitness (log ratio)” value is -1.29. For the variant A52G C93U C96U G136C A138G U146A, the “polymerase ribozyme fitness (log ratio)” value was no more than -4.2. For U53G A97U, the “polymerase ribozyme fitness (log ratio)” value is -2.68.

U53G A97C: the “polymerase ribozyme fitness (log ratio)” value is -1.81. As for C54A A66G A91G C95G G141A G143U U146C, the “polymerase ribozyme fitness (log ratio)” value was no more than -4.2.

On to U53A C54A A91U, for which the “polymerase ribozyme fitness (log ratio)” value is no more than -4.2.

For the variant U53G A119C A122C G141U, the “polymerase ribozyme fitness (log ratio)” value is -0.69. As for U53G G94U A98C, the “polymerase ribozyme fitness (log ratio)” value was -2.12. In the case of A52U G83A C95U, the “polymerase ribozyme fitness (log ratio)” value was -3.78.

Consider U53G C96A U104G, for which the “polymerase ribozyme fitness (log ratio)” value is -3.96. Turning to U53A U56A, the “polymerase ribozyme fitness (log ratio)” value was -2.45. Take U53A U56G: the “polymerase ribozyme fitness (log ratio)” value was -1.11.

Take U53G G94C A115U: the “polymerase ribozyme fitness (log ratio)” value was -3.49. On to U53A G94A, for which the “polymerase ribozyme fitness (log ratio)” value is -1.61. In the case of U53A G83C, the “polymerase ribozyme fitness (log ratio)” value was -2.61.

Take U53G G71C G86A G143U: the “polymerase ribozyme fitness (log ratio)” value is no more than -4.2. In the case of A52U C96U U101G U145G, the “polymerase ribozyme fitness (log ratio)” value is -4.1. Take A52G U144A: the “polymerase ribozyme fitness (log ratio)” value was -0.831. As for U53G U56A G94C A115C C123G, the “polymerase ribozyme fitness (log ratio)” value was -3.89.

Consider U53A G70A C99A G124C, for which the “polymerase ribozyme fitness (log ratio)” value is no more than -4.2. The figure for U53A C57A C69G A91C is no more than -4.2; for U53G C54U C96U A98G G133C G141U it is -4.03.

Consider U53A G81A C85A C131U, for which the “polymerase ribozyme fitness (log ratio)” value is -4.19. For A52G U104A A122G U139G, the “polymerase ribozyme fitness (log ratio)” value was -1.23. As for U53A C63A A66G G67A G84A A97G, the “polymerase ribozyme fitness (log ratio)” value is no more than -4.2.

For A52G G86U C96G U144C U151C, the “polymerase ribozyme fitness (log ratio)” value is no more than -4.2.

Regarding U53A G143A U146C, the “polymerase ribozyme fitness (log ratio)” value was -2.83. With U53G A110G G117A U148A, the “polymerase ribozyme fitness (log ratio)” value is no more than -4.2.

In the case of A52G U55A C87G, the “polymerase ribozyme fitness (log ratio)” value is no more than -4.2. Consider A52U C87U C103U, for which the “polymerase ribozyme fitness (log ratio)” value is -2.81. Under U53G C118U stands -1.68; under U53A A147G, -3.69; under A52G G58C C79U A98U U101G C108A, no more than -4.2. In the case of U53A G81A C95U A120C U144G, the “polymerase ribozyme fitness (log ratio)” value is -1.05. Under A52G C93U G94C A97C stands -3.73; under A52U U82G U135G A150U, -2.62; under U53G C96G U144C, -3.23.

Turning to A52G G68U C99G, the “polymerase ribozyme fitness (log ratio)” value was no more than -4.2. On to U53A C125U, for which the “polymerase ribozyme fitness (log ratio)” value is -1.28. Take A52G G88A C118A C123U G141C: the “polymerase ribozyme fitness (log ratio)” value was no more than -4.2.

The values are drawn from the RNAGym collection of RNA variant scans (doi:10.1073/pnas.2313332121).
